Assay results as given in patent US20240270857A1 (CHIA TAI TIANQING PHARMACEUTICAL GROUP, published 2024).
Substitutions are numbered along the chain they refer to.

B1: hz72C1-1.2 (antibody, human IgG4 S228P, kappa)
heavy: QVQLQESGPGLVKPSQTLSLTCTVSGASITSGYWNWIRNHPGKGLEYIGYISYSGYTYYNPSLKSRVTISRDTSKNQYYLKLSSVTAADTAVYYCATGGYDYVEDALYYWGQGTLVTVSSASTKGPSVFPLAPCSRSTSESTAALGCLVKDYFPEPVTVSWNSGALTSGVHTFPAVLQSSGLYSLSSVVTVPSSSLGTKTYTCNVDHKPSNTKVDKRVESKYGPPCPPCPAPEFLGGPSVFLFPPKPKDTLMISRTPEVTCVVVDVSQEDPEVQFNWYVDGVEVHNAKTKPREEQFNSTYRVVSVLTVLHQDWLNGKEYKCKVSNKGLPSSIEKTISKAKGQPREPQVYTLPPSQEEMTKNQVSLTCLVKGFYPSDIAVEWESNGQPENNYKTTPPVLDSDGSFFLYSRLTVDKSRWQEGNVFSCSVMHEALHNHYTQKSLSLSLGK
light: DIQMTQSPSSLSASVGDRVTITCRASSNVRYMYWYQQKPGKAPKLWIYLTSNLASGVPSRFSGSGSGTSYTLTISSLQPEDFATYYCQQFTTSPYTFGQGTKLEIKRTVAAPSVFIFPPSDEQLKSGTASVVCLLNNFYPREAKVQWKVDNALQSGNSQESVTEQDSKDSTYSLSSTLTLSKADYEKHKVYACEVTHQGLSSPVTKSFNRGEC
notes: Humanized, human IgG4 / kappa
B2: hz72C1-1.3 (antibody, human IgG4 S228P, kappa)
heavy: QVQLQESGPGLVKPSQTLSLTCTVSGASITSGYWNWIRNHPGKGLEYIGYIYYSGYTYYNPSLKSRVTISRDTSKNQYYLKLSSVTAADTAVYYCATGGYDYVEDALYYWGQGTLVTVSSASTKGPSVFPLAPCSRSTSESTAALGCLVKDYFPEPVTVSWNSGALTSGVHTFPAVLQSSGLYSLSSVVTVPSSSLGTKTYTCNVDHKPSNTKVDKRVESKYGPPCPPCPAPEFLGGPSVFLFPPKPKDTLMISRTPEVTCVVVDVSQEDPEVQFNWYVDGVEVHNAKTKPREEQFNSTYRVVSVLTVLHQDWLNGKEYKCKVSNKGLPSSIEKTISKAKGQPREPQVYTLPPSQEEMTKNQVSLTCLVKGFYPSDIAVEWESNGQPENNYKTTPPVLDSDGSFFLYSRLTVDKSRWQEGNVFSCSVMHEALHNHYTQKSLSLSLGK
light: B1 light
notes: Humanized, human IgG4 / kappa
B3: hz72C1-1.1 (antibody, human IgG4 S228P, kappa)
heavy: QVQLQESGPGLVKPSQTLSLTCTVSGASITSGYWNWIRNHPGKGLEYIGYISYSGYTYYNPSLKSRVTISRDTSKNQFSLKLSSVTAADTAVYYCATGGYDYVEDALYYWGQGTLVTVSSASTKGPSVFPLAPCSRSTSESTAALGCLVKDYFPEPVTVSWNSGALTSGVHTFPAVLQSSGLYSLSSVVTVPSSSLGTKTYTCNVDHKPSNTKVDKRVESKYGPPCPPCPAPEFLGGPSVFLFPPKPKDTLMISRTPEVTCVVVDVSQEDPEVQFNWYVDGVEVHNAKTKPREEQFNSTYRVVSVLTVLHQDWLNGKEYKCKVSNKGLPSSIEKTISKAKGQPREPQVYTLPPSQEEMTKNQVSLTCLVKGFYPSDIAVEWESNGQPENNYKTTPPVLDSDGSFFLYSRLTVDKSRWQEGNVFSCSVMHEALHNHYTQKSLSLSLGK
light: B1 light
notes: Humanized, human IgG4 / kappa; also called humanized 72C1 antibody 1.1
B4: hz84C4-1.1 (antibody, human IgG4 S228P, kappa, V domains shown)
VH: QVQLVQSGAEVKKPGASVKVSCKASGYFFTSYWMNWVRQAPGQGLEWMGMIHPYDSETRYAQKFQGRVTMTVDKSTSTVYMELSSLRSEDTAVYYCASSTTAFAYWGQGTLVTVSS
VL: DIQMTQSPSSLSASVGDRVTITCRASQDIGNALNWYQQKPGKAPKRLIYATSSLDPGVPSRFSGSRSGTDFTLTISSLQPEDFATYYCLQYASSPYTFGQGTKVEIKR
notes: Humanized, human IgG4 / kappa
B5: hz84C4-1.3 (antibody, human IgG4 S228P, kappa, V domains shown)
VH: B4 VH with H52Y
VL: B4 VL
notes: Humanized, human IgG4 / kappa
B6: hz84C4-2.4 (antibody, human IgG4 S228P, kappa, V domains shown)
VH: B4 VH with F28Y, Y60L, Q65K
VL: B4 VL with Y36L, F71Y
notes: Humanized, human IgG4 / kappa
B7: hz84C4-2.5 (antibody, human IgG4 S228P, kappa, V domains shown)
VH: B4 VH with A24V, R38N, Y60L, Q65K
VL: B4 VL with Y36L, F71Y
notes: Humanized, human IgG4 / kappa
B8: hz84C4-2.1 (antibody, human IgG4 S228P, kappa, V domains shown)
VH: B4 VH
VL: B4 VL with Y36L, F71Y
notes: Humanized, human IgG4 / kappa
B9: hz84C4-1.5 (antibody, human IgG4 S228P, kappa, V domains shown)
VH: B4 VH with A24V, R38N, Y60L, Q65K
VL: B4 VL
notes: Humanized, human IgG4 / kappa
B10: hz84C4-2.3 (antibody, human IgG4 S228P, kappa, V domains shown)
VH: B4 VH with H52Y
VL: B4 VL with Y36L, F71Y
notes: Humanized, human IgG4 / kappa
B11: hz84C4-1.4 (antibody, human IgG4 S228P, kappa, V domains shown)
VH: B4 VH with F28Y, Y60L, Q65K
VL: B4 VL
notes: Humanized, human IgG4 / kappa
B12: hz84C4-2.2 (antibody, human IgG4 S228P, kappa, V domains shown)
VH: B4 VH with M50Y
VL: B4 VL with Y36L, F71Y
notes: Humanized, human IgG4 / kappa
B13: hz84C4-1.2 (antibody, human IgG4 S228P, kappa, V domains shown)
VH: B4 VH with M50Y
VL: B4 VL
notes: Humanized, human IgG4 / kappa

What follows are binders tested against T1, IL-36R naturally expressed on OVCAR8 cells and on normal human epidermal keratinocytes (NHK cells) (human, UniProt Q9HB29 20-575) (assay: cell-based or functional assay).
T1 sequence (looked up): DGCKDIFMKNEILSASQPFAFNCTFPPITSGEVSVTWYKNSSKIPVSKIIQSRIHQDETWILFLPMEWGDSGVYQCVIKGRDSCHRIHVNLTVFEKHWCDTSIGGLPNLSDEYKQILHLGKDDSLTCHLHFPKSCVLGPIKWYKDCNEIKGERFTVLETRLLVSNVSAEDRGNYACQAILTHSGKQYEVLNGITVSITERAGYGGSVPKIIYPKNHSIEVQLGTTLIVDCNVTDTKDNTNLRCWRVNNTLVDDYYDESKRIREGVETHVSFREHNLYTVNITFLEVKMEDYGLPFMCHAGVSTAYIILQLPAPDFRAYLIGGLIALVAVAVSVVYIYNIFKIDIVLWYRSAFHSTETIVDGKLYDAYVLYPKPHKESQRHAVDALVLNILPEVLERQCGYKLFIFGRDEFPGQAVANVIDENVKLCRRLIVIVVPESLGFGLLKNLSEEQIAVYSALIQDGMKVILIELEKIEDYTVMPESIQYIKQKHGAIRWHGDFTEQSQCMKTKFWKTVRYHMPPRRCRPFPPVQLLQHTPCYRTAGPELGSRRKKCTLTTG

Row | Binder | IC50 (M); hIL36α; IL-8 production | IC50 (M); hIL36αβγ; IL-8 production | IC50 (M); hIL36β; IL-8 production | IC50 (M); hIL36γ; IL-8 production | Maximum inhibition rate %; hIL36α; IL-8 production | Maximum inhibition rate %; hIL36αβγ; IL-8 production | Maximum inhibition rate %; hIL36β; IL-8 production | Maximum inhibition rate %; hIL36γ; IL-8 production
1 | B1 | 6.21e-11 M | 8.82e-11 M | 2.61e-11 M | 1.38e-11 M | 98.9% | 97.9% | 98.2% | 98.2%
2 | B2 | 4.08e-11 M | 8.4e-11 M | 1.6e-11 M | 2.42e-11 M | 99% | 97.7% | 98.4% | 98.3%
3 | B3 | 3.02e-11 M | 9.17e-11 M | 4.11e-11 M | 2.59e-11 M | 99% | 97.5% | 98.4% | 98.2%

Molecular target: T2, cynomolgus IL-36R overexpressed on 293T-CynoIL36R-NFκB cells (cynomolgus monkey)
T2 construct: Entry includes the signal peptide; also called monkey IL-36R
T2 chain: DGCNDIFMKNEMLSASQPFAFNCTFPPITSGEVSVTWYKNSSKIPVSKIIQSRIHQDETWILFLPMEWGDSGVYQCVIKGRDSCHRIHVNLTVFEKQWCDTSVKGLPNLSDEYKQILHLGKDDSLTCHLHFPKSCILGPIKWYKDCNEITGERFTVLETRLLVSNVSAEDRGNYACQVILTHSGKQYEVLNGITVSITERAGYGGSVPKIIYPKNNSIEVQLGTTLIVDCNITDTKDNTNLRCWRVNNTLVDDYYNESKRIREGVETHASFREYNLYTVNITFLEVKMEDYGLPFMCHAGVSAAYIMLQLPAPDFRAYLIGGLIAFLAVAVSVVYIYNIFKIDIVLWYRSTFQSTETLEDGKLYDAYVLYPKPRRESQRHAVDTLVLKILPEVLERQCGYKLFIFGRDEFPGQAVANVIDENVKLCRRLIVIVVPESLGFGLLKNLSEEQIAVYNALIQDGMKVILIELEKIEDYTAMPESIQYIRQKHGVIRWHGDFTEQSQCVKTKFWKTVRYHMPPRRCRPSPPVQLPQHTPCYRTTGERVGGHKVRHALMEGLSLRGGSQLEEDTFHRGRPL
Test: FACS on 293T-CynoIL36R-NFκB cells, ratio of MFI to background MFI
Method: (§1) After the cells was washed with PBS, the cells were resuspended with 100 μL of PBS and then the fluorescence signal was detected using a flow cytometer (BD, Accuri C6). […] The ratio was the ratio of mean fluorescence intensity (MFI) of the experimental group/the background MFI, and the resulting data were analyzed using GraphPad Prism.
(§2) Affinity, binding and blocking assays for humanized antibodies hz72C1-1.1, hz72C1-1.2, hz72C1-1.3, hz72C1-2.1, hz72C1-2.2 and hz72C1-2.3 as well as hz84C4-1.1, hz84C4-1.2, hz84C4-1.3, hz84C4-1.4, hz84C4-1.5, hz84C4-2.1, hz84C4-2.2, hz84C4-2.3, hz84C4-2.4 and hz84C4-2.5 were performed according to the methods of Example 4, Example 5. Example 6, Example 7 and Example 8.

Row | Binder | EC50
4 | B1 | ~4.94 nM
5 | B2 | 5.76 nM
6 | B3 | 5.21 nM

What follows are binders tested against T3, human IL-36R overexpressed on 293T-hIL36R-NFκB cells (human, UniProt Q9HB29 20-575) (assay: FACS on 293T-hIL36R-NFκB cells, ratio of MFI to background MFI).
T3 construct: Entry includes the signal peptide; also called IL1RL2; IL-1Rrp2
T3 sequence: T1 sequence (looked up)
Method: as §1, §2

Row | Binder | EC50
7 | B1 | 11.9 nM
8 | B2 | 11.9 nM
9 | B3 | 11.6 nM

Molecular target: T2, cynomolgus IL-36R overexpressed on …
Test: FACS on 293T-CynoIL36R-NFκB cells, ratio of MFI to background MFI
Remark: another data set of the same source
Method: as §1, §2

Row | Binder | EC50
10 | B4 | 18 nM
11 | B5 | 9.22 nM
12 | B6 | 48.2 nM
13 | B7 | 11.9 nM
14 | B8 | 5.75 nM
15 | B9 | 10.5 nM
16 | B10 | 176 nM
17 | B11 | 24.4 nM
18 | B12 | 17.1 nM
19 | B13 | 37.3 nM

Molecular target: T1, IL-36R naturally expressed on OVCAR8 …
Test: cell-based or functional assay
Remark: another data set of the same source

Row | Binder | IC50 (M); hIL36α; IL-8 production | IC50 (M); hIL36αβγ; IL-8 production | IC50 (M); hIL36β; IL-8 production | IC50 (M); hIL36γ; IL-8 production | Maximum inhibition rate %; hIL36α; IL-8 production | Maximum inhibition rate %; hIL36αβγ; IL-8 production | Maximum inhibition rate %; hIL36β; IL-8 production | Maximum inhibition rate %; hIL36γ; IL-8 production
20 | B1 | 1.19e-10 M | 3.29e-10 M | 4.33e-10 M | 1.14e-10 M | 96.1% | 89.6% | 84.7% | 85.7%
21 | B2 | 7.09e-11 M | 3.82e-10 M | 2.4e-10 M | 1.03e-10 M | 97.3% | 90.3% | 90.3% | 93.5%
22 | B3 | 2.19e-10 M | 3.72e-10 M | 3.85e-10 M | 1.21e-10 M | 99% | 93.7% | 86.7% | 102%

Molecular target: T3, human IL-36R overexpressed on …
Test: FACS on 293T-hIL36R-NFκB cells, ratio of MFI to background MFI
Remark: another data set of the same source
Method: as §1, §2

Row | Binder | EC50
23 | B4 | ~5.28 nM
24 | B5 | 18.2 nM
25 | B6 | ~5.26 nM
26 | B7 | ~5.04 nM
27 | B8 | ~5.22 nM
28 | B9 | ~5.1 nM
29 | B10 | 14.5 nM
30 | B11 | 5.75 nM
31 | B12 | ~5.23 nM
32 | B13 | 6 nM
